The record followed here is patent publication US20050130920A1 (published 2005).

The test deals with T1, HLA-A2.1 on T2 cells (empty or unstable surface MHC class I, with added beta-2 microglobulin) (human).
T1 construct: it is treated here as the same molecule; also called HLA-A*0201
The experiment in a line: T2 cell HLA-A2.1 stabilisation, W6/32 staining, flow cytometry. (In general: In flow cytometry, cells or beads pass a laser one at a time.)

Experimental: T2 cells, which express empty or unstable MHC molecules on their surfacer were washed twice and suspended at 5×10⁶ cells/ml in serum-free complete Iscove's modified Dulbecco's medium (IMDM). B2 microglobulin (Sigma, St. Louis, Mo.) was added at 5 μg/ml and the cells distributed to a 96-well U-bottom plate at 5×10⁵ cells/well. Peptides were added at 100, 10, 1 and 0.1 μg/ml. The plate was rocked gently for 2 minutes and then incubated for 4 hours in a 5% CO₂ incubator at 37° C. After the unbound peptide was removed by washing twice with IMDM, a saturating amount of monoclonal antibody W6/32 (Sigma) was added. After incubation for 30 minutes at 4° C., cells were washed with PBS supplemented with 1% heat-inactivated FCS, 0.1% (w:v) sodium azide, pH 7.4-7.6 (staining buffer), and incubated with fluorescein isothiocyanate (FITC)-conjugated goat F(ab′) antimouse-IgG (Sigma) for 30 min at 4° C. and washed four times as before. The cells were resuspended in staining buffer and fixed by adding a quarter volume of 2% paraformaldehyde.

B1: tyrosinase 207-216, FLPWHRLFLL (candidate tyrosinase housekeeping epitope) (peptide)
peptide: FLPWHRLFLL
notes: Synthetic 10-mer added to T2 cells at 100, 10, 1 and 0.1 ug/ml
Regarding B1, the binding result is given as “binds”.
